Patent US20050107285A1

Assays:
[1] = target: FcγRIIIb receptor on human neutrophils (human) (UniProt O75015); assay: cell-based or functional assay
[2] = target: FcγRIIIb receptor on human neutrophils (human) (UniProt O75015); assay: flow cytometry of TNFα-primed human neutrophils with saturating FITC-Leu11b, quantified with Quantum Simply Cellular microbeads

Sequence of UniProt O75015 (O75015 17-200): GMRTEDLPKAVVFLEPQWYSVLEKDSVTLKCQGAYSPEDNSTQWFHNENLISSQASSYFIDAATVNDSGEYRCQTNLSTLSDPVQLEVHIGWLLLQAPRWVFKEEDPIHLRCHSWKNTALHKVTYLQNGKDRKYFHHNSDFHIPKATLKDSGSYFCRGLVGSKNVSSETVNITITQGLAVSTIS

Row | Substance | respiratory burst (luminol chemiluminescence) of primed neutrophils after PI-PLC depletion of surface FcγRIIIb [1] | antibody-binding sites per cell (antibody-binding sites per cell) [2]
1 | insoluble IgG-containing immune complexes (human serum albumin and rabbit anti-HSA antibodies) (from UniProt P02768 25-609) | 70 % decrease | –
2 | FITC-labelled Leu11b (anti-CD16) (antibody) | – | 240000
